Experimental data as given in patent publication US20200262877A1, “ION CHANNEL-BINDING PEPTIDES AND METHODS OF USE THEREOF” (priority 2017, published 2020).

Assays:
5HT3a = target: T1, 5HT3a (Homo sapiens, UniProt P46098); assay: Ion channel panel (IonWorks Barracuda): 5HT3a; format: cell-based
T1 construct: host or cells: HEK293 or CHO
T1 sequence (P46098 whole entry, looked up): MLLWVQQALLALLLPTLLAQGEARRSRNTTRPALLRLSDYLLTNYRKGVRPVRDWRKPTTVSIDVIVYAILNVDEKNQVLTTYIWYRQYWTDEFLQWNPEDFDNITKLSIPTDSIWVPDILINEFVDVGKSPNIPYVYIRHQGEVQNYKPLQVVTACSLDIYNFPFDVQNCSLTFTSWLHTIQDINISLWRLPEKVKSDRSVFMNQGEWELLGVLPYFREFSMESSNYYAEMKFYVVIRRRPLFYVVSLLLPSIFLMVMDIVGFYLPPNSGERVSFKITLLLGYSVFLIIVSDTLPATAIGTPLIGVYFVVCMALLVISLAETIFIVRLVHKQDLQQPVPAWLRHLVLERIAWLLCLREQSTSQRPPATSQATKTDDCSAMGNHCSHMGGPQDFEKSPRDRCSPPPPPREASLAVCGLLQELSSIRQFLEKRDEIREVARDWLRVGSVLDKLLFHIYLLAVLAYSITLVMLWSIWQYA
Outline: (§1)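 Peptides were tested in duplicate at final 20 μM and 200 nM, with concentration set by amino acid analysis, in HEPES-buffered saline. They were applied for at least 5 min to HEK293 or CHO cells transfected with each channel. Currents were expressed as % inhibition, 1-(Ipeptide/Icontrol)×100, or % activation, Ipeptide/Icontrol×100, against a channel-matched reference compound.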

α3β4 = target: T2, α3β4 (Homo sapiens, UniProt P30926+P32297); assay: Ion channel panel (IonWorks Barracuda): α3β4; format: cell-based; settings: 100% = no change, <100% = inhibition
T2 construct: host or cells: HEK293 or CHO
Outline: as §1

α4β2 = target: T3, α4β2 (Homo sapiens, UniProt P17787+P43681); assay: Ion channel panel (IonWorks Barracuda): α4β2; format: cell-based; settings: 100% = no change, <100% = inhibition
T3 construct: host or cells: HEK293 or CHO
Outline: as §1

Cav2.1 = target: T4, Cav2.1 (Homo sapiens, UniProt O00555); assay: cell-based; settings: 100% = no change, <100% = inhibition
T4 construct: host or cells: HEK293 or CHO
Outline: as §1

Cav2.2 = target: T5, Cav2.2 (Homo sapiens, UniProt Q00975); assay: cell-based; settings: 100% = no change, <100% = inhibition
T5 construct: host or cells: HEK293 or CHO
Outline: as §1

Kv2.1 = target: T6, Kv2.1 (Homo sapiens, UniProt Q14721); assay: cell-based; settings: 100% = no change, <100% = inhibition
T6 construct: host or cells: HEK293 or CHO
T6 sequence (Q14721 whole entry): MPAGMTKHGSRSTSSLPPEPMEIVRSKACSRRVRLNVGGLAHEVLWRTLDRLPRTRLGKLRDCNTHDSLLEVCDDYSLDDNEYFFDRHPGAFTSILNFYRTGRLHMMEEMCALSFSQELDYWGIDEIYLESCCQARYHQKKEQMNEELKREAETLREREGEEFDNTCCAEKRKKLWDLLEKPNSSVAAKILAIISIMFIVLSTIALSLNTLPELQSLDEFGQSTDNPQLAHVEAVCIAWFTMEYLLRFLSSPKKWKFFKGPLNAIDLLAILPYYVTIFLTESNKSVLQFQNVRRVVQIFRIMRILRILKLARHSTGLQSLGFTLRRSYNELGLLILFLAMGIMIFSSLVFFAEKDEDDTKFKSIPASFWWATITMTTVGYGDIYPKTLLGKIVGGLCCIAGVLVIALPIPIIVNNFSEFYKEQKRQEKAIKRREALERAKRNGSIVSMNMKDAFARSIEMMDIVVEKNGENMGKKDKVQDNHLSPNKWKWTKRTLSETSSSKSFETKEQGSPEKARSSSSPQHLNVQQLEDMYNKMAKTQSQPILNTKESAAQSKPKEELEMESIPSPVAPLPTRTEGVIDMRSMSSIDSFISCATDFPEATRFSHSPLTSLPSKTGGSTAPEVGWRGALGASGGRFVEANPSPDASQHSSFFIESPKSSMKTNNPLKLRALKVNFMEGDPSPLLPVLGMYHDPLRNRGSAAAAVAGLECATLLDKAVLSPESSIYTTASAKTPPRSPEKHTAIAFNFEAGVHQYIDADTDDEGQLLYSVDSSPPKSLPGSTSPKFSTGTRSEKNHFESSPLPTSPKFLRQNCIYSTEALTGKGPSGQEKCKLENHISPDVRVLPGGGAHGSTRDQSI
Outline: as §1

GABA = assay: Ion channel panel (IonWorks Barracuda): GABA; format: cell-based; settings: 100% = no change, <100% = inhibition
Outline: as §1

Nav1.5 = Nav1.5 (Homo sapiens, UniProt Q14524); assay: in vitro; settings: 100% = no change; for Activity of Nav1.5 with peptide, expressed as a percentage of the reference compound: peptide at 0.2 μM; for Activity of Nav1.5 with peptide (percentage of the reference compound): peptide at 20 μM
Nav1.5, sequence (Q14524 whole entry): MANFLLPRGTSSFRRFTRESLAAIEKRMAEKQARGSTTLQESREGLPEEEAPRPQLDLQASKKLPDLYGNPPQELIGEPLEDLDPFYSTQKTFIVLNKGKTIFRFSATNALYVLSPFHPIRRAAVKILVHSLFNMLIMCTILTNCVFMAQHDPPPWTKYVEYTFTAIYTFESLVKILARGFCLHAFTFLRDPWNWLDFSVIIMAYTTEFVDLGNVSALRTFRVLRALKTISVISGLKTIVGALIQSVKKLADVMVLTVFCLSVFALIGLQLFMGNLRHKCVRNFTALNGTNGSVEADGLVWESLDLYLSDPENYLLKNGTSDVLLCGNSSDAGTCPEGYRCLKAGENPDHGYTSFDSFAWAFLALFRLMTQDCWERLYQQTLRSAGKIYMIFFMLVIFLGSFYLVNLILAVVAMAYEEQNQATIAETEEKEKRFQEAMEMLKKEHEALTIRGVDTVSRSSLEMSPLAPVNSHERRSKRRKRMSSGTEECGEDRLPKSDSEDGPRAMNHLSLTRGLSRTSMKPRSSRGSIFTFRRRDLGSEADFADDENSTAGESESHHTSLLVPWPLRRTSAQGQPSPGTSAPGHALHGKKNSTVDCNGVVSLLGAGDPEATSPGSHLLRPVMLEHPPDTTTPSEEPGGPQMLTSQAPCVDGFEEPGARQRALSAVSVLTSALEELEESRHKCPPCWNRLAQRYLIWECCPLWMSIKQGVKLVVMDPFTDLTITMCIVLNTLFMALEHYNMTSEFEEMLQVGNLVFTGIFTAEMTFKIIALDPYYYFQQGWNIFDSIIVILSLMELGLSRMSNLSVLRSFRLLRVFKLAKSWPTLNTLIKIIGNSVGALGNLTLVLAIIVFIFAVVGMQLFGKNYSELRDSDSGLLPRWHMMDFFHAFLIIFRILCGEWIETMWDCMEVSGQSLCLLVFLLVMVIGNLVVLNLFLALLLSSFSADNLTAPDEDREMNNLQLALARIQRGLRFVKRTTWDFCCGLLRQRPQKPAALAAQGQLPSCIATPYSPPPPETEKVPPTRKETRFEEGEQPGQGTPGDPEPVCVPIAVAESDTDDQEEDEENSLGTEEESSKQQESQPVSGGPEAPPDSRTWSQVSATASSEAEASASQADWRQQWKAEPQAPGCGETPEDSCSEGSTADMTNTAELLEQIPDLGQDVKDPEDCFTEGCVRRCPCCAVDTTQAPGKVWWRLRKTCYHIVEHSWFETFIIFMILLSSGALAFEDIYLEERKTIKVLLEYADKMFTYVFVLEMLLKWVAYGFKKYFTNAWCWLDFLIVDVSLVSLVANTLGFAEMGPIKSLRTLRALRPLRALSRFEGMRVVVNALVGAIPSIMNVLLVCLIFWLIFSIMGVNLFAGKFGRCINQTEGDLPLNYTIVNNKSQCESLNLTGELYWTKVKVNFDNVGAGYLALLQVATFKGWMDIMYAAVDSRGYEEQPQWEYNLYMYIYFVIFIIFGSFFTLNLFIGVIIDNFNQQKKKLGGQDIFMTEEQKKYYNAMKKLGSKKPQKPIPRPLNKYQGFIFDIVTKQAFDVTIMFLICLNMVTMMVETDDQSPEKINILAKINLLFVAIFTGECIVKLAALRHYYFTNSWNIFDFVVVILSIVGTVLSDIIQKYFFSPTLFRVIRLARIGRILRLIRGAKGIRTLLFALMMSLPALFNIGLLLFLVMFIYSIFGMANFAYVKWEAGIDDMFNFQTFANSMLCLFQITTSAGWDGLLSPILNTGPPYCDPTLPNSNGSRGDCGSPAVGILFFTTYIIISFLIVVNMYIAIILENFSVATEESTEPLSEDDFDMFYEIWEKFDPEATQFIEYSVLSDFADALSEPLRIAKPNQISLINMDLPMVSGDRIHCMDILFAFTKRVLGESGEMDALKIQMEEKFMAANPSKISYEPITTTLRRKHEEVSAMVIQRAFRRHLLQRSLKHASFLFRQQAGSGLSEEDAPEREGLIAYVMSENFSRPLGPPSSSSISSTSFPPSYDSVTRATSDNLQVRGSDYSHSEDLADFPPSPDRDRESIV
Outline: as §1

hERG = hERG (Homo sapiens, UniProt Q12809); assay: in vitro; settings: 100% = no change, <100% = inhibition
Outline: as §1

Kir2.1 = target: T7, Kir2.1 (Homo sapiens, UniProt P63252); assay: Ion channel panel (IonWorks Barracuda): Kir2.1; format: cell-based; settings: 100% = no change, <100% = inhibition
T7 construct: host or cells: HEK293 or CHO
Outline: as §1

Kv1.1 = target: T8, Kv1.1 (Homo sapiens, UniProt Q09470); assay: cell-based; format: cell-based; settings: 100% = no change, <100% = inhibition
T8 construct: host or cells: HEK293 or CHO
Outline: as §1

Kv1.2 = target: T9, Kv1.2 (Homo sapiens, UniProt P16389); assay: cell-based; format: cell-based; settings: 100% = no change, <100% = inhibition
T9 construct: host or cells: HEK293 or CHO
Outline: as §1

Kv1.3 = target: T10, Kv1.3 (Homo sapiens, UniProt P22001); assay: cell-based; format: cell-based; settings: 100% = no change, <100% = inhibition
T10 construct: host or cells: HEK293 or CHO
Outline: as §1

Nav1.7 = target: T11, Nav1.7 (Homo sapiens, UniProt Q15858); assay: cell-based; format: cell-based; settings: 100% = no change; for Activity of Nav1.7 with peptide, expressed as a percentage of the reference compound: peptide at 0.2 μM; for Activity of Nav1.7 with peptide (percentage of the reference compound): peptide at 20 μM
T11 construct: host or cells: HEK293 or CHO
T11 sequence (Q15858 whole entry): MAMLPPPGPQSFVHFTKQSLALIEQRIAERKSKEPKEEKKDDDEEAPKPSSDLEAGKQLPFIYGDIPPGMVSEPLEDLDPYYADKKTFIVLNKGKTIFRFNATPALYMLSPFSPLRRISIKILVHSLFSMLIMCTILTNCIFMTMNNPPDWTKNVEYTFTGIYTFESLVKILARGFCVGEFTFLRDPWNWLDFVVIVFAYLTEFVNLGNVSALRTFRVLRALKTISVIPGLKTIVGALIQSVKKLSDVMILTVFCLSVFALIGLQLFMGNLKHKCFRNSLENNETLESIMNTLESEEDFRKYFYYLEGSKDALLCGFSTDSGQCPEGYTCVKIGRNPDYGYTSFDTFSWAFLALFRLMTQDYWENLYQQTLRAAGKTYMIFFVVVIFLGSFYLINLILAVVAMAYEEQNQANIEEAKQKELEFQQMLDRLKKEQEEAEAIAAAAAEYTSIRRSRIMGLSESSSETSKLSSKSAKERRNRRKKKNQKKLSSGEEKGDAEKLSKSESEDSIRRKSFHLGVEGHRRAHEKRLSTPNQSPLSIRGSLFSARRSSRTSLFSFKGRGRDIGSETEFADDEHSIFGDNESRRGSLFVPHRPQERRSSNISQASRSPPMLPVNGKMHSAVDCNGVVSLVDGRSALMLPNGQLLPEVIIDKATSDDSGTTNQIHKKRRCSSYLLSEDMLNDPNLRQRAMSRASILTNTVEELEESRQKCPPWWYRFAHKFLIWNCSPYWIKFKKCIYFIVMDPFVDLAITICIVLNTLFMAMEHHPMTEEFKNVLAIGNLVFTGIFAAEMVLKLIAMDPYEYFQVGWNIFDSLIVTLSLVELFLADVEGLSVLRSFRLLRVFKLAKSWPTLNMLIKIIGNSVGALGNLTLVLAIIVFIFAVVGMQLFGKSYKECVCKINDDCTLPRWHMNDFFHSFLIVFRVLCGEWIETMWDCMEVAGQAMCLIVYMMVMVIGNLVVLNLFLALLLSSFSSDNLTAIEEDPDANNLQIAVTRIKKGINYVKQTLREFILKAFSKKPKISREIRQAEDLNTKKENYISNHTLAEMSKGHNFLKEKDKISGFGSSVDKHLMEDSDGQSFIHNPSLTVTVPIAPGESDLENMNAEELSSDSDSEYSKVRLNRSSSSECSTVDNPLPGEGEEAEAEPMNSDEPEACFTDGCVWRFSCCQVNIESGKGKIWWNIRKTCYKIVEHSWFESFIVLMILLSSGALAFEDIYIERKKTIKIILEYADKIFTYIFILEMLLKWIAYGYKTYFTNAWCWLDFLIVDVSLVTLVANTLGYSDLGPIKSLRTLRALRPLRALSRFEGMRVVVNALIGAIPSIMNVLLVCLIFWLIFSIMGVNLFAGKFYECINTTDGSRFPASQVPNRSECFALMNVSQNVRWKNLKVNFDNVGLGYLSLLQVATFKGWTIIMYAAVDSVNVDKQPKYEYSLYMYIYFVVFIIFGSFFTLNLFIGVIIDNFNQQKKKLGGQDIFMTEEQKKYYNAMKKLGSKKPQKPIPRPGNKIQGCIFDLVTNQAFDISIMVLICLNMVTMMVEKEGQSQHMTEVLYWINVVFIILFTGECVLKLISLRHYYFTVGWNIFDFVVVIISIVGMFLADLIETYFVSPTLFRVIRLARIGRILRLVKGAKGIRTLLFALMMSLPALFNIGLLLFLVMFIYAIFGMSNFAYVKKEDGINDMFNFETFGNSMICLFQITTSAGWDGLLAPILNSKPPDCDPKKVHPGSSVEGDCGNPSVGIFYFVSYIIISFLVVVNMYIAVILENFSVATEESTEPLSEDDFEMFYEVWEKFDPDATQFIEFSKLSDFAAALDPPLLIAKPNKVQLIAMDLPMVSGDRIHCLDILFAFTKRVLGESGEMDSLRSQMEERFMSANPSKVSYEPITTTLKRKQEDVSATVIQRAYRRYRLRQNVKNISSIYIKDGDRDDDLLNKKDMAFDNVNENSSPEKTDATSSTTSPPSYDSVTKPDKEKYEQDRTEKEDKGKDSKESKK

NR2A = target: T12, NR2A (Homo sapiens, UniProt Q12879); assay: Ion channel panel (IonWorks Barracuda): NR2A; format: cell-based; settings: 100% = no change, <100% = inhibition
T12 construct: host or cells: HEK293 or CHO
Outline: as §1

NR2B = target: T13, NR2B (Homo sapiens, UniProt Q13224); assay: Ion channel panel (IonWorks Barracuda): NR2B; format: cell-based; settings: 100% = no change, <100% = inhibition
T13 construct: host or cells: HEK293 or CHO
Outline: as §1

TRPA1 = target: T14, TRPA1 (Homo sapiens, UniProt O75762); assay: Ion channel panel (IonWorks Barracuda): TRPA1; format: cell-based; settings: 100% = no change, <100% = inhibition
T14 construct: host or cells: HEK293 or CHO
Outline: as §1

TRPV1 = target: T15, TRPV1 (Homo sapiens, UniProt Q8NER1); assay: Ion channel panel (IonWorks Barracuda): TRPV1; format: cell-based; settings: 100% = no change, <100% = inhibition
T15 construct: host or cells: HEK293 or CHO
Outline: as §1

[1] = first of two Nav1.5 columns (probably TP1)
[2] = second of two Nav1.5 columns (probably TP2)
[3] = first of two Nav1.7 columns (probably TP1)
[4] = second of two Nav1.7 columns (probably TP2)

32 (GSQDKCKKVYENYPVSKCQLANQCNYDCKLDKHARSGECFYDEKRNLQCICDYCEY) [compound 32]
Activity of 5HT3a with peptide (percentage of the reference compound) (5HT3a): 105%
Activity of 5HT3a with peptide, expressed as a percentage of the reference compound (5HT3a): 95%
Activity of a3b4 with peptide, expressed as a percentage of the reference compound (α3β4; peptide at 0.2 μM): 100%
Activity of a3b4 with peptide (percentage of the reference compound) (α3β4; peptide at 20 μM): 96%
Activity of a4b2 with peptide, expressed as a percentage of the reference compound (α4β2; peptide at 0.2 μM): 81%
Activity of a4b2 with peptide (percentage of the reference compound) (α4β2; peptide at 20 μM): 86%
Activity of Cav2.1 with peptide, expressed as a percentage of the reference compound (Cav2.1; peptide at 0.2 μM): 98%
Activity of Cav2.1 with peptide (percentage of the reference compound) (Cav2.1; peptide at 20 μM): 92%
Activity of Cav2.2 with peptide, expressed as a percentage of the reference compound (Cav2.2; peptide at 0.2 μM): 102%
Activity of Cav2.2 with peptide (percentage of the reference compound) (Cav2.2; peptide at 20 μM): 101%
Activity of Kv2.1 with peptide, expressed as a percentage of the reference compound (Kv2.1; peptide at 0.2 μM): 92%
Activity of Kv2.1 with peptide (percentage of the reference compound) (Kv2.1; peptide at 20 μM): 93%
Activity of GABA with peptide, expressed as a percentage of the reference compound (GABA; peptide at 0.2 μM): 98%
Activity of GABA with peptide (percentage of the reference compound) (GABA; peptide at 20 μM): 105%
Activity of Nav1.5 with peptide, expressed as a percentage of the reference compound (Nav1.5; [1]): 108%
Activity of Nav1.5 with peptide, expressed as a percentage of the reference compound (Nav1.5; [2]): 101%
Activity of Nav1.5 with peptide (percentage of the reference compound) (Nav1.5; [1]): 90%
Activity of Nav1.5 with peptide (percentage of the reference compound) (Nav1.5; [2]): 90%
Activity of hERG with peptide, expressed as a percentage of the reference compound (hERG; peptide at 0.2 μM): 90%
Activity of hERG with peptide (percentage of the reference compound) (hERG; peptide at 20 μM): 65%
Activity of Kir2.1 with peptide, expressed as a percentage of the reference compound (Kir2.1; peptide at 0.2 μM): 95%
Activity of Kir2.1 with peptide (percentage of the reference compound) (Kir2.1; peptide at 20 μM): 79%
Activity of Kv1.1 with peptide, expressed as a percentage of the reference compound (Kv1.1; peptide at 0.2 μM): 76%
Activity of Kv1.1 with peptide (percentage of the reference compound) (Kv1.1; peptide at 20 μM): 114%
Activity of Kv1.2 with peptide, expressed as a percentage of the reference compound (Kv1.2; peptide at 0.2 μM): 89%
Activity of Kv1.2 with peptide (percentage of the reference compound) (Kv1.2; peptide at 20 μM): 112%
Activity of Kv1.3 with peptide, expressed as a percentage of the reference compound (Kv1.3; peptide at 0.2 μM): 98%
Activity of Kv1.3 with peptide (percentage of the reference compound) (Kv1.3; peptide at 20 μM): 98%
Activity of Nav1.7 with peptide, expressed as a percentage of the reference compound (Nav1.7; [3]): 96%
Activity of Nav1.7 with peptide, expressed as a percentage of the reference compound (Nav1.7; [4]): 97%
Activity of Nav1.7 with peptide (percentage of the reference compound) (Nav1.7; [3]): 87%
Activity of Nav1.7 with peptide (percentage of the reference compound) (Nav1.7; [4]): 61%
Activity of NR2A with peptide, expressed as a percentage of the reference compound (NR2A; peptide at 0.2 μM): 95%
Activity of NR2A with peptide (percentage of the reference compound) (NR2A; peptide at 20 μM): 110%
Activity of NR2B with peptide, expressed as a percentage of the reference compound (NR2B; peptide at 0.2 μM): 76%
Activity of NR2B with peptide (percentage of the reference compound) (NR2B; peptide at 20 μM): 106%
Activity of TRPA1 with peptide, expressed as a percentage of the reference compound (TRPA1; peptide at 0.2 μM): 130%
Activity of TRPA1 with peptide (percentage of the reference compound) (TRPA1; peptide at 20 μM): 108%
Activity of TRPV1 with peptide, expressed as a percentage of the reference compound (TRPV1; peptide at 0.2 μM): 99%
Activity of TRPV1 with peptide (percentage of the reference compound) (TRPV1; peptide at 20 μM): 84%
